Key:
Test in all cases: cell-based or functional assay
[1] = biological target: HIV-1 Env of virus MGRM-G-014 (HIV-1)
[2] = biological target: HIV-1 Env of virus MGRM-Chronic-B-012 (HIV-1)
[3] = biological target: HIV-1 Env of virus MGRM-Acute-B-001 (HIV-1)
[4] = biological target: HIV-1 Env of virus MGRM-G-024 (HIV-1)
[5] = biological target: HIV-1 Env of virus MGRM-G-004 (HIV-1)
[6] = biological target: HIV-1 Env of virus MGRM-D-011 (HIV-1)
[7] = biological target: HIV-1 Env of virus MGRM-Acute-B-007 (HIV-1)
[8] = biological target: HIV-1 Env of virus MGRM-D-001 (HIV-1)
[9] = biological target: HIV-1 Env of virus MGRM-AG-006 (HIV-1)
[10] = biological target: HIV-1 Env of virus MGRM-A-013 (HIV-1)
[11] = biological target: HIV-1 Env of virus MGRM-Chronic-B-015 (HIV-1)
[12] = biological target: HIV-1 Env of virus MGRM-F1-014 (HIV-1)
[13] = biological target: HIV-1 Env of virus MGRM-C-005 (HIV-1)
[14] = biological target: HIV-1 Env of virus MGRM-C-012 (HIV-1)
[15] = biological target: HIV-1 Env of virus MGRM-AG-007 (HIV-1)
[16] = biological target: HIV-1 Env of virus MGRM-F1-016 (HIV-1)
[17] = biological target: HIV-1 Env of virus MGRM-Acute-B-009 (HIV-1)
[18] = biological target: HIV-1 Env of virus MGRM-F1-004 (HIV-1)
[19] = biological target: HIV-1 Env of virus MGRM-Chronic-B-023 (HIV-1)
[20] = biological target: HIV-1 Env of virus MGRM-Chronic-B-022 (HIV-1)
[21] = biological target: HIV-1 Env of virus MGRM-G-001 (HIV-1)
[22] = biological target: HIV-1 Env of virus MGRM-A-014 (HIV-1)
[23] = biological target: HIV-1 Env of virus MGRM-G-013 (HIV-1)
[24] = biological target: HIV-1 Env of virus MGRM-A-002 (HIV-1)
[25] = biological target: HIV-1 Env of virus MGRM-Chronic-B-005 (HIV-1)
[26] = biological target: HIV-1 Env of virus MGRM-Chronic-B-008 (HIV-1)
[27] = biological target: HIV-1 Env of virus MGRM-C-004 (HIV-1)
[28] = biological target: HIV-1 Env of virus MGRM-D-014 (HIV-1)
[29] = biological target: HIV-1 Env of virus MGRM-D-002 (HIV-1)
[30] = biological target: HIV-1 Env of virus MGRM-Chronic-B-006 (HIV-1)
[31] = biological target: HIV-1 Env of virus MGRM-AG-001 (HIV-1)
[32] = biological target: HIV-1 Env of virus MGRM-C-016 (HIV-1)
[33] = biological target: HIV-1 Env of virus MGRM-Chronic-B-003 (HIV-1)
[34] = biological target: HIV-1 Env of virus MGRM-C-007 (HIV-1)
[35] = biological target: HIV-1 Env of virus MGRM-F1-018 (HIV-1)
[36] = biological target: HIV-1 Env of virus MGRM-C-002 (HIV-1)
[37] = biological target: HIV-1 Env of virus MGRM-Acute-B-006 (HIV-1)
[38] = biological target: HIV-1 Env of virus MGRM-F1-020 (HIV-1)
[39] = biological target: HIV-1 Env of virus MGRM-C-011 (HIV-1)
[40] = biological target: HIV-1 Env of virus MGRM-Acute-B-003 (HIV-1)
[41] = biological target: HIV-1 Env of virus MGRM-F1-015 (HIV-1)
[42] = biological target: HIV-1 Env of virus MGRM-A-010 (HIV-1)

B1: PGT121.60 hIgG1/hLambda (antibody)
heavy: QMQLQESGPGLVKPSETLSLTCSVSGASISDSYWSWIRRSPGKGLEWIGYVHKSGDTNYNPSLKSRVHLSLDTSKNQVSLSLTGVTAADSGKYYCARTLHGRRIYGIVAFNEWFTYFYMDVWGTGTQVTVSSASTKGPSVFPLAPSSKSTSGGTAALGCLVKDYFPEPVTVSWNSGALTSGVHTFPAVLQSSGLYSLSSVVTVPSSSLGTQTYICNVNHKPSNTKVDKKVEPKSCDKTHTCPPCPAPELLAGPDVFLFPPKPKDTLMISRTPEVTCVVVDVSHEDPEVKFNWYVDGVEVHNAKTKPREEQYNSTYRVVSVLTVLHQDWLNGKEYKCKVSNKALPLPEEKTISKAKGQPREPQVYTLPPSREEMTKNQVSLTCLVKGFYPSDIAVEWESNGQPENNYKTTPPVLDSDGSFFLYSKLTVDKSRWQQGNVFSCSVLHEALHSHYTQKSLSLSPGK
light: not shown
[1]
  PGT121.60 IC50: 0.0034 µg/mL
[2]
  PGT121.60 IC50: 0.0409 µg/mL
[3]
  PGT121.60 IC50: 0.0313 µg/mL
[4]
  PGT121.60 IC50: 0.0119 µg/mL
[5]
  PGT121.60 IC50: 0.046 µg/mL
[6]
  PGT121.60 IC50: 0.0043 µg/mL
[7]
  PGT121.60 IC50: 0.0255 µg/mL
[8]
  PGT121.60 IC50: 0.431 µg/mL
[9]
  PGT121.60 IC50: 0.0106 µg/mL
[10]
  PGT121.60 IC50: 0.0561 µg/mL
[11]
  PGT121.60 IC50: 0.185 µg/mL
[12]
  PGT121.60 IC50: 0.0509 µg/mL
[13]
  PGT121.60 IC50: 0.0078 µg/mL
[14]
  PGT121.60 IC50: 0.0338 µg/mL
[15]
  PGT121.60 IC50: 0.108 µg/mL
[16]
  PGT121.60 IC50: 0.522 µg/mL
[17]
  PGT121.60 IC50: 0.0016 µg/mL
[18]
  PGT121.60 IC50: 0.547 µg/mL
[19]
  PGT121.60 IC50: 0.0034 µg/mL
[20]
  PGT121.60 IC50: 11.5 µg/mL
[21]
  PGT121.60 IC50: 0.005 µg/mL
[22]
  PGT121.60 IC50: 0.001 µg/mL
[23]
  PGT121.60 IC50: 1.5 µg/mL
[24]
  PGT121.60 IC50: 0.0047 µg/mL
[25]
  PGT121.60 IC50: 0.072 µg/mL
[26]
  PGT121.60 IC50: 0.0056 µg/mL
[27]
  PGT121.60 IC50: 0.0064 µg/mL
[28]
  PGT121.60 IC50: 0.0019 µg/mL
[29]
  PGT121.60 IC50: 0.0015 µg/mL
[30]
  PGT121.60 IC50: 0.002 µg/mL
[31]
  PGT121.60 IC50: 1.44 µg/mL
[32]
  PGT121.60 IC50: 0.0137 µg/mL
[33]
  PGT121.60 IC50: 0.0079 µg/mL
[34]
  PGT121.60 IC50: 0.199 µg/mL
[35]
  PGT121.60 IC50: 0.0201 µg/mL
[36]
  PGT121.60 IC50: 0.0095 µg/mL
[37]
  PGT121.60 IC50: 0.0966 µg/mL
[38]
  PGT121.60 IC50: 0.041 µg/mL
[39]
  PGT121.60 IC50: 0.0012 µg/mL
[40]
  PGT121.60 IC50: 0.0179 µg/mL
[41]
  PGT121.60 IC50: 11.6 µg/mL
[42]
  PGT121.60 IC50: 0.745 µg/mL
